Format in all cases: cell-based
The subject of one test is human preadipocytes. Kind of test: Cytokine stimulation of estradiol production in human preadipocytes. Conditions: 72 hr, FIG. 9. As for the experimental part:
[…] The amount of estradiol release in the conditioned media was determined by radioimmunoassay for estradiol using the Active™ Estradiol EIA kit according to the manufacturer's instructions (catalog no. DSL-10-4300, Diagnostic Systems Laboratories, Inc., Webster, Tex.). Each value represents the mean±S.E.M. of triplicate wells. Similar results were reproducible in 10 additional experiments using cells derived from either male or female patients.

Another test relates to human adipocytes. Kind of test: Estradiol production in cultured human adipocytes (estradiol in conditioned media). Particulars: for estradiol production stimulated by a mixture of 6 cytokines: mix of IL-1b, TNF-α, IL-6, IL-8, IL-11, oncostatin M 0.01 ug/ml each, IFN-α 1 ug/ml, IFN-b 2 ug/ml, FIG. 4; for estradiol production (effect of cytokine alone): human adipocytes, different doses of IL-1α and IL-1β. Here is the method:
Human subcutaneous cultured adipocytes, catalog nos. SP-1012, SP-1024, SP-1096, SP-75, or SP-25 were purchased from Zen-Bio, Inc. (Research Triangle Park, N.C.) and cultured according to the manufacturer's instructions.
Human adipocytes (approximately 100,000 cells/well) were cultured for 24 hr in the presence or absence of different doses of IL-1α and IL-1β (as indicated) with and without IFN-γ (0.1 ug/ml, IL-1α, IL-1β and IFN-γ were purchased from R&D). The amount of estradiol release in the conditioned media was determined by radioimmunoassay for estradiol using the Active™ Estradiol EIA kit according to the manufacturer's instructions (catalog no. DSL-10-4300, Diagnostic Systems Laboratories, Inc., Webster, Tex.). Each value represents the mean±S.E.M. of triplicate wells.
Human adipocytes (100,000 cells/well) were cultured for 72 hr with and without increasing doses of IFN-γ (0.0001 to 1 ug/ml, purchased from R&D). The amount of estradiol in the conditioned media was determined by radioimmunoassay as described in Example 1. Each value represents the mean±S.E.M. of triplicate wells.
Human adipocytes (100,000 cells/well) were cultured for 72 hr in the presence or absence of different doses of the mix Cytokines (IL-1b, TNF-α, IL-6, IL-8, IL-11 and oncostatin M, 0.01 ug/ml/each—dilution as indicated) with and without IFN-γ (0.1 ug/ml), […] (1 ug/ml) or IFN-b (2 ug/ml). IFN-α was purchased from PBL while IFN-b was obtained from Serono. The amount of estradiol release in the conditioned media was determined by radioimmunoassay as described in Example 1. Each value represents the mean±S.E.M. of triplicate wells.
Human adipocytes (100,000 cells/well) obtained from Zen-Bio,Inc were cultured for 48 hr in the presence or absence of different doses of the cytokine mix (dilution as indicated) with and without IFN-γ (0.1 ug/ml). The amount of estradiol release in the conditioned media was determined by radioimmunoassay as described in Example 1. Each value represents the mean±S.E.M. of triplicate wells.
Human adipocytes (100,000 cells/well) obtained from Zen-Bio, Inc were cultured for 72 hr in the presence or absence of different doses of LPS (as indicated) with and without IFN-γ (0.1 ug/ml, LPS were purchased from Sigma). The amount of estradiol release in the conditioned media was determined by radioimmunoassay as described in Example 1. Each value represents the mean±S.E.M. of triplicate wells.
Human adipocytes (100,000 cells/well) obtained from Zen-Bio, Inc were cultured for 48 hr in the presence or absence of different doses of the mix LPS, PMA and PGE2 (dilution as indicated) with and without IFN-γ (0.1 ug/ml). IFN-γ was added at the same as the mix, 8 hr or 24 hr after the mix of the LPS, PMA and PGE2 which were purchased from Sigma. The amount of estradiol release in the conditioned media was determined by radioimmunoassay as described in Example 1. Each value represents the mean±S.E.M. of triplicate wells.

The subject of another test is aromatase mRNA. The test can be described thus: Aromatase mRNA expression in human adipocytes by RT-PCR. Conditions: for aromatase mRNA expression (induction by cytokine alone): cytokine 0.1 ug/ml. As for the experimental part:
Adipocyte cultures were treated with IL-1-β, IFN-γ, TNF-α, and combinations of IL-1-β, and IFN-γ and TNF-α and IFN-γ. Subsequently, total RNA from cultured adipocytes was isolated using conventional methods. The reverse transcriptase polymerase chain reaction (RT-PCR) was performed using aromatase specific primers. The amplified aromatase cDNA fragments produced by RT-PCR were separated on an agarose gel. As shown in the FIG. 3, IL-1 and TNF alone induce transcription of aromatase mRNA compared to untreated control. However, the administration of IFN-γ inhibits the transcription of aromatase mRNA when given together IL-1 or TNF.
Human adipocytes (from one flask with 100% confluence) obtained from Zen-Bio,Inc were cultured for 72 hr in the presence or absence of 0.1 ug/ml of different Cytokines as indicated with and without IFN-γ (0.1 ug/ml, all Cytokines were purchased from R&D except FAS ligand, TRAIL and OX40 Ligands were obtained from Alexis). Total RNA was extracted for RT-PCR (30 cycles with 50 ng RNA/each sample) using human aromatase and GAPDH specific oligos (20 mers).

Regarding GH: human growth hormone, the “estradiol production (stimulation by cytokine)” value in the test with human preadipocytes (cytokine 5 ug/ml) is “stimulate”.
In the case of IGF-1: insulin growth factor-1, in the test with human preadipocytes (cytokine 5 ug/ml), the “estradiol production (stimulation by cytokine)” value is reported as “stimulate”.
With IFN-α, the “estradiol production stimulated by a mixture of 6 cytokines” value in the test on human adipocytes (72 hr, IFN-γ 0.1 ug/ml) is “do not inhibit”.
For the molecule IL-6: interleukin-6, cytokine, the “estradiol production (stimulation by cytokine)” value with human preadipocytes (cytokine 0.5 ug/ml) is given as “stimulate”. The “aromatase mRNA expression (induction by cytokine alone)” value (shortened to “aromatase mRNA expression”) in the test on aromatase mRNA (72 hr, FIG. 8) was “induce”.
For the molecule “LIF: leukemia inhibitory factor, cytokine”, in the test on aromatase mRNA (72 hr, FIG. 8), the “aromatase mRNA expression” value is reported as “induce”.
Same read-out and setting: in the case of “TRAIL: tumor necrosis factor-related apoptosis-inducing ligand, obtained from Alexis” it was “induce”.
In the case of “IL-1β: interleukin-1 beta, cytokine purchased from R&D”, in the test on human adipocytes (24 hr, FIG. 1), the “estradiol production (effect of cytokine alone)” value is “significantly increased estradiol production”. In addition, the “transcription of aromatase mRNA (cytokine alone compared to untreated control)” value in the test with aromatase mRNA (adipocyte cultures, FIG. 3) is recorded as “induce”. Also, in the test with aromatase mRNA (72 hr, FIG. 8), the “aromatase mRNA expression” value was “induce”.
IL-8: interleukin-8, cytokine: in the test with human preadipocytes (cytokine 0.5 ug/ml), the “estradiol production (stimulation by cytokine)” value is given as “stimulate”.

B1: IL-1α: interleukin-1-alpha, cytokine purchased from R&D (protein, UniProt P01583 113-271, looked up)
Interleukin-1 alpha: SAPFSFLSNVKYNFMRIIKYEFILNDALNQSIIRANDQYLTAAALHNLDEAVKFDMGAYKSSKDDAKITVILRISKTQLYVTAQDEDQPVLLKEMPEIPKTITGSETNLLFFWETHGTKNYFTSVAHPNLFIATKQDYWVCLAGGPPSITDFQILENQA
Regarding B1, in the test on human adipocytes (24 hr, FIG. 1), the “estradiol production (effect of cytokine alone)” value is recorded as “significantly increased estradiol production”.

B2: OX40L: OX40 Ligand, obtained from Alexis (protein, UniProt P23510 1-183, looked up)
Tumor necrosis factor ligand …: MERVQPLEENVGNAARPRFERNKLLLVASVIQGLGLLLCFTYICLHFSALQVSHRYPRIQSIKVQFTEYKKEKGFILTSQKEDEIMKVQNNSVIINCDGFYLISLKGYFSQEVNISLHYQKDEEPLFQLKKVRSVNSLMVASLTYKDKVYLNVTTDNTSLDDFHVNGGELILIHQNPGEFCVL
As for B2, in the test with aromatase mRNA (72 hr, FIG. 8), the “aromatase mRNA expression” value is listed as “induce”.

B3: IL-11: interleukin-11, cytokine (protein, UniProt P20809 22-199, looked up)
Interleukin-11: PGPPPGPPRVSPDPRAELDSTVLLTRSLLADTRQLAAQLRDKFPADGDHNLDSLPTLAMSAGALGALQLPGVLTRLRADLLSYLRHVQWLRRAGGSSLKTLEPELGTLQARLDRLLRRLQLLMSRLALPQPPPDPPAPPLAPPSSAWGGIRAAHAILGGLHLTLDWAVRGLLLLKTRL
Take B3: the “estradiol production (stimulation by cytokine)” value with human preadipocytes (cytokine 0.5 ug/ml) is on record as “stimulate”. Besides, the “aromatase mRNA expression” value in the test on aromatase mRNA (72 hr, FIG. 8) is given as “induce”.

B4: OSM: oncostatin M, cytokine (protein, UniProt P13725 26-221, looked up)
Oncostatin-M: AAIGSCSKEYRVLLGQLQKQTDLMQDTSRLLDPYIRIQGLDVPKLREHCRERPGAFPSEETLRGLGRRGFLQTLNATLGCVLHRLADLEQRLPKAQDLERSGLNIEDLEKLQMARPNILGLRNNIYCMAQLLDNSDTAEPTKAGRGASQPPTPTPASDAFQRKLEGCRFLHGYHRFMHSVGRVFSKWGESPNRSRR
For the molecule B4, the “estradiol production (stimulation by cytokine)” value in the test on human preadipocytes (cytokine 0.5 ug/ml) is on record as “stimulate”.

B5: IFN-γ: interferon-gamma, recombinant human, purchased from R&D (protein, UniProt P01579 24-161, looked up)
Interferon gamma: QDPYVKEAENLKKYFNAGHSDVADNGTLFLGILKNWKEESDRKIMQSQIVSFYFKLFKNFKDDQSIQKSVETIKEDMNVKFFNSNKKKRDDFEKLTNYSVTDLNVQRKAIHELIQVMAELSPAAKTGKRKRSQMLFRG
As to B5, the “estradiol production stimulated by a mixture of 15 cytokines” value in the test on human adipocytes (15 cytokines 0.01 ug/ml each, 48 hr, IFN-γ 0.1 ug/ml, FIG. 5) was “inhibited”. The “LPS stimulated estradiol production” value in the test with human adipocytes (72 hr, IFN-γ 0.1 ug/ml, FIG. 6) is reported as “inhibits”. The “IL-1α and IL-1β induced estradiol production” value with human adipocytes (IFN-γ 0.1 ug/ml, 24 hr, FIG. 1) was “inhibits”. In addition, in the test on human adipocytes (IFN-γ 0.0001 to 1 ug/ml, 72 hr, FIG. 2), the constitutive estradiol production entry is given as “dose-dependent inhibitory effect”. Moreover, the “PMA, LPS and PGE2 stimulated estradiol production” value in the test on human adipocytes (mix PMA 5 ng/ml, LPS 10 ug/ml, PGE2 10 ug/ml, 48 hr, IFN-γ 0.1 ug/ml added at same time, 8 hr or 24 hr after the mix, FIG. 7) is “inhibits”. The “estradiol production stimulated by a mixture of 6 cytokines” value in the test with human adipocytes (72 hr, IFN-γ 0.1 ug/ml) is “inhibits”. The “constitutive aromatase mRNA” value in the test with aromatase mRNA (adipocyte cultures, Example 3) is “Inhibited”. For the same molecule, the “transcription of aromatase mRNA when given together IL-1 or TNF” value in the test with aromatase mRNA (adipocyte cultures, FIG. 3) is given as “inhibits”. For the same molecule, the “induced expression of aromatase mRNA by TRAIL, OX40, IL-1β, IL-6, IL-11 and LIF” value in the test on aromatase mRNA (cytokines 0.1 ug/ml, IFN-γ 0.1 ug/ml, 72 hr, FIG. 8) was “inhibits”.

For the origin of these results see US20050079156A1, “Method of treating endometreosis” (priority 2001, published 2005).
